In PMC2914686:

Substrate: C[S+](CC[C@H](N)C(=O)[O-])C[C@H]1O[C@@H](n2cnc3c(N)ncnc32)[C@H](O)[C@@H]1O
Experiment: Michaelis-Menten kinetics
Assay type: biochemical, Homo sapiens

B1: G9a (Homo sapiens) (protein)
chain: NRAIRTEKIICRDVARGYENVPIPCVNGVDGEPCPEDYKYISENCETSTMNIDRNITHLQHCTCVDDCSSSNCLCGQLSIRCWYDKDGRLLQEFNKIEPPLIFECNQACSCWRNCKNRVVQSGIKVRLQLYRTAKMGWGVRALQTIPQGTFICEYVGELISDAEADVREDDSYLFDLDNKDGEVYCIDARYYGNISRFINHLCDPNIIPVRVFMLHQDLRFPRIAFFSSRDIRTGEELGFDYGDRFWDIKSKYFTCQCGSEKCKHSAEAIALEQSRLARLD
  Km: 31.7 µM
